Data taken from US20210363269A1 (ALX ONCOLOGY, published 2021).
Where a chain is given by its changes, count along the chain named.

T1: high affinity SIRP-α D1 variant CV1-3
T1 chain: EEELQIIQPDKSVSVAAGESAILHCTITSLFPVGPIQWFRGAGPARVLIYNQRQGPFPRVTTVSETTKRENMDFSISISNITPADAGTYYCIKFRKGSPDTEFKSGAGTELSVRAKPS

T2: cynomolgus SIRP-α D1 domain (cyno1) (cynomolgus monkey, UniProt Q5TFQ8 30-148 (human entry), limits assumed)
T2 chain: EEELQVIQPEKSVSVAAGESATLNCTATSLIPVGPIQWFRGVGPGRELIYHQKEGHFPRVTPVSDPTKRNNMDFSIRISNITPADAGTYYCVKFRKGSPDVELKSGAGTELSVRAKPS

T3: cynomolgus SIRP-α D1 domain (cyno2) (cynomolgus monkey, UniProt Q5TFQ8 30-148 (human entry), limits assumed)
T3 chain: T2 chain with E19D, A27V, T28S, V42A, H51N, Q52L, P62A

T4: mouse 129 SIRP-α D1 domain (mouse (129 strain), UniProt P97797 32-150)
T4 construct: also called m129
T4 chain: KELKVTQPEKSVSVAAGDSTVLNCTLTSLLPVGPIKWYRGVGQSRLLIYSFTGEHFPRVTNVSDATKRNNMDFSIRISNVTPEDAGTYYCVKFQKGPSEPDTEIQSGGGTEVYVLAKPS

T5: NOD mouse SIRP-α D1 domain (mouse (NOD strain))
T5 chain: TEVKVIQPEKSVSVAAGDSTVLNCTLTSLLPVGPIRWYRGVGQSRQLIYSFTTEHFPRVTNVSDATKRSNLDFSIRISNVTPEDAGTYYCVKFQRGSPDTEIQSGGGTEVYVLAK

T6: C57BL/6 mouse SIRP-α D1 domain (mouse (C57BL/6 strain), UniProt P97797 32-148)
T6 sequence: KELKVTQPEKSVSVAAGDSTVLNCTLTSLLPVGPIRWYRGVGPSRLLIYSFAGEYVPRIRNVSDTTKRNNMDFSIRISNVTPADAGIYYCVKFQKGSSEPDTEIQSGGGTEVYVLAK

B1: S136 (scFv, V domains shown)
VH: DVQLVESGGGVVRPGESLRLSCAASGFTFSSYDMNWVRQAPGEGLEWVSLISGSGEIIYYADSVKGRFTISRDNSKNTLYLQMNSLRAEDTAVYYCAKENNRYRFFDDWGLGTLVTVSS
VL: ETVLTQSPGTLTLSPGERATLTCRASQSVYTYLAWYQEKPGQAPRLLIYGASSRATGIPDRFSGSGSGTEFTLTISSLQSEDFAVYYCQQYYDRPPLTFGGGTKVEIK
notes: also called scFv-Fc form of AB136
B2: S189 (scFv, V domains shown)
VH: DVQLVESGGGVVRPGESLRLSCAASGFTFSSSDMNWVRQAPGEGLEWVSLISGSGEITYYADSVKGRFTISRDNSKNTLYLQMNSLRAEDTAIYYCAKENNMYRFFDYWGLGTLVTVSS
VL: B1 VL with T12S, T22S, E38Q, A43P, Y49H, G50A, S52R, S53N, T56A
B3: S180 (scFv, V domains shown)
VH: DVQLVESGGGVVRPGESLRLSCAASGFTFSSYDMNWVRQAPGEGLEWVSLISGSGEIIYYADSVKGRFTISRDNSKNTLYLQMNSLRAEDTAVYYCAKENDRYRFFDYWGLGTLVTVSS
VL: B1 VL
notes: also called clone 180
B4: S184 (scFv, V domains shown)
VH: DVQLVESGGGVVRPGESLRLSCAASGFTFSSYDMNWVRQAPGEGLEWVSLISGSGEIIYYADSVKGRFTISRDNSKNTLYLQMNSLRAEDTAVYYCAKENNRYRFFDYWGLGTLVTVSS
VL: B1 VL with T12S, T22N, G50D, Q79E
B5: S185 (scFv, V domains shown)
VH: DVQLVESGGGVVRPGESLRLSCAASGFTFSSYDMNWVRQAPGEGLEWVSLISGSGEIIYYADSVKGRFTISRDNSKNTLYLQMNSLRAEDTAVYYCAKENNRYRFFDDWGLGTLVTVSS
VL: B1 VL with T12S, T22N, T31S, K39R, S53T, Q79E, E81D
B6: S190 (scFv, V domains shown)
VH: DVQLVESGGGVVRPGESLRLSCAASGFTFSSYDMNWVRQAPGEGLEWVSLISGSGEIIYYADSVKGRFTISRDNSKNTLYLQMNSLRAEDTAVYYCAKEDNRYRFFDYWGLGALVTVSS
VL: B1 VL with A19T
notes: also called clone 190
B7: S175 (scFv, V domains shown)
VH: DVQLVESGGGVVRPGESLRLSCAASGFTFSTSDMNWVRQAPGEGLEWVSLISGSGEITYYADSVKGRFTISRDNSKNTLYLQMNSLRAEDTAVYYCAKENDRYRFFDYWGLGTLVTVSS
VL: B1 VL with T10I, T12S, T56A
B8: S178 (scFv, V domains shown)
VH: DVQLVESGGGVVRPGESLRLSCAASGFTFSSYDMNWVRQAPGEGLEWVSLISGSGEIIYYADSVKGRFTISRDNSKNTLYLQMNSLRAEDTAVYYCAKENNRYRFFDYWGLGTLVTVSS
VL: B1 VL with T22S, I58V
B9: S74 (scFv, V domains shown)
VH: DVQLVESGGGVVRPGESLRLSCAASGFTFSSNAMSWVRQAPGKGLEWLAGISAGDSDTYYPASVKGRFTISRDNPKNTLYLQMNTLTAEDTAVYYCARETWNHLFDYWGLGTLVTVSS
VL: ALTQPASVSANPGETVKIACSGGSYYSYYYGWYQQKSPGSALVTVIYSDDKRPSGIPSRFSGSASGSTATLTITGVRAEDEAVYYCGGYDYSSYTNDFGAGTTLTVL
notes: also called clone 74
B10: S16 (scFv, V domains shown)
VH: DVQLVESGGGVVRPGESLRLSCAVSGFRFSSYAMSWVRQAPGKGLEWVSGISSGGDTYYVDSVKGRFTISRDNSKNTLYLQVNSLTAEDTAIYYCARETWNHLFDYWGLGTLVTVSS
VL: ALTQPASVSANLGETVKITCSGGDSSSHYYGWYQQKSPGSAPVTVIYSDDERPSDIPSRFSGSASGSTATLTITGVRVEDEAIYYCGAYDGSTYANTFGAGTTLTVL
notes: also called clone 16
B11: S30 (scFv, V domains shown)
VH: B10 VH with A23E, V24A, R28T, Y32D, G55S, D56S, V60G, D61G, V82M, I92V
VL: ALTQPASVSASPGETVEITCSGGSDSSYYYGWYQQKSPGSAPVTVIYSDNKRPSNIPSRFSGSASGSTATLTITGVRVEDEAVYYCGGYDYSTYTNPFGAGTTLTVL
notes: also called clone 30
B12: S29 (scFv, V domains shown)
VH: B10 VH with G54D, G55S, T57A, I92V, L112M
VL: B10 VL with Y33F, V45L, Y85F, A95T
notes: also called clone 29
B13: S27 (scFv, V domains shown)
VH: B10 VH
VL: B10 VL with N11D
notes: also called clone 27; scFv-Fc form of AB27
B14: S55 (scFv, V domains shown)
VH: B10 VH
VL: B10 VL with K17E
notes: also called clone 55
B15: S26 (scFv, V domains shown)
VH: DVQLVESGGGVVRPGESLRLSCAASGFTFSTYAMSWVRQAPGKGLEWVSGISASGSGTYYGDSVKGRFTMSRDNSKNTLYLQMNSLTAEDTAVYYCARETWNHLFDYWGLGTLVTVSS
VL: ALTQPASVSANLGGTVEITCSGGSSSYYGWYQQKSPGSAPVTVIYSDNQRPSDIPSRFSGSASDSTATLTITGVQVEDEAIYYCGGYDSSTYANTFGAGTTLTVL
notes: also called clone 26
B16: S177 (scFv, V domains shown)
VH: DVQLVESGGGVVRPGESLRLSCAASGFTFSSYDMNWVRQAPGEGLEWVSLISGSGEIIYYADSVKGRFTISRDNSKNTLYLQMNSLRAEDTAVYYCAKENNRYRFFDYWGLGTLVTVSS
VL: B1 VL with E1K, T12S, S26D, K39R, G50D
B17: S193 (scFv, V domains shown)
VH: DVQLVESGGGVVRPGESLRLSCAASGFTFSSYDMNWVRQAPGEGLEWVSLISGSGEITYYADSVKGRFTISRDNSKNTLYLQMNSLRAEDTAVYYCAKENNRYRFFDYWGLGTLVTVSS
VL: B1 VL with T12S, T22S, G50A, S53T
notes: scFv-Fc format (VL-linker-VH on human IgG1 Fc)

Molecular target: T1, high affinity SIRP-α D1 variant CV1-3
Assay: SPR, Langmuir fit
How it was run: (§1)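 Dissociation rate constants (koff) were measured on a ProteOn XPR36 instrument by Langmuir model fitting. Antibody clones in scFv-Fc format were captured from pre-filtered culture media onto a GLC chip with about 4000 RU of amine-coupled anti-human IgG Fc. SIRP analytes ran in PBS pH 7.4 with 0.01% Tween-20 at 25° C, and the model used was 1:1, applied to data double-referenced against interspot and buffer-blank responses.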

Binder | koff [s⁻¹]
B1 | 0.00159
B2 | 0.00228
B3 | 0.00307
B4 | 0.00514
B5 | 0.00239
B6 | 0.00308
B7 | 0.00165
B8 | 0.00426
B9 | 0.000166
B10 | 0.0001
B11 | 0.000142
B12 | 0.000343
B13 | 8.94e-05
B14 | 6e-05
B15 | 4.74e-05

molecular target: T7, human SIRPγ isoform 1 (human, UniProt Q9P1W8 29-147); assay: SPR, Langmuir fit
T7 construct: also called SIRPg; sirpg
T7 sequence (Q9P1W8 29-147 limits assumed): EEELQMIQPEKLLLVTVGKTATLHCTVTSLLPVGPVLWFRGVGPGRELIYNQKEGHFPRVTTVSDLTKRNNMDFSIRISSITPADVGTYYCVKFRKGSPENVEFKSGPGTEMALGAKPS
How it was run: as §1

Binder | koff [s⁻¹]
B9 | 0.000225
B10 | 8.17e-05
B11 | 0.000193
B12 | 0.000216
B13 | 9.46e-05
B14 | 4.69e-05
B15 | 8.35e-05

molecular target: T8, human SIRP-α v1 D1 domain (human, UniProt P78324 31-149); assay: SPR, Langmuir fit
T8 construct: also called human v1
T8 sequence (P78324 31-149 limits assumed): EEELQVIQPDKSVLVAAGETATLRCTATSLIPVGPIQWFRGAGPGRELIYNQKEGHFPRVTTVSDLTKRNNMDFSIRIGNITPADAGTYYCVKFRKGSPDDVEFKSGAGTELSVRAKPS
How it was run: as §1

Binder | koff [s⁻¹]
B1 | 0.000845
B2 | 0.00106
B3 | 0.0016
B5 | 0.00122
B6 | 0.00156
B7 | 0.000839
B8 | 0.00223
B9 | 0.000161
B10 | 6.22e-05
B11 | 0.000132
B12 | 9.61e-05
B13 | 5.81e-05
B14 | 4.18e-05
B15 | 5.81e-05

molecular target: T9, human SIRP-α v2 D1 domain (human); assay: SPR, Langmuir fit
T9 construct: also called human v2
How it was run: as §1

Binder | koff [s⁻¹]
B1 | 0.00161
B2 | 0.00281
B3 | 0.00227
B5 | 0.00205
B6 | 0.00199
B7 | 0.00183
B8 | 0.00317
B9 | 0.000278
B10 | 0.000111
B11 | 0.000188
B12 | 0.000178
B13 | 9.97e-05
B14 | 7.16e-05
B15 | 0.000111

Molecular target: T2, cynomolgus SIRP-α D1 domain (cyno1)
Assay: SPR, Langmuir fit
How it was run: as §1

Binder | koff [s⁻¹]
B2 | 0.00331
B16 | 0.00447
B3 | 0.0025
B4 | 0.0039
B5 | 0.00178
B6 | 0.00217
B7 | 0.00177
B8 | 0.00344
B9 | 0.000337
B10 | 0.000132
B11 | 0.000335
B12 | 0.000387
B13 | 0.000138
B14 | 9.63e-05
B15 | 0.000967

Molecular target: T3, cynomolgus SIRP-α D1 domain (cyno2)
Assay: SPR, Langmuir fit
How it was run: as §1

Binder | koff [s⁻¹]
B1 | 0.00132
B2 | 0.00187
B16 | 0.00269
B3 | 0.00138
B4 | 0.00221
B17 | 0.00428
B5 | 0.00103
B6 | 0.00124
B7 | 0.00107
B8 | 0.00177
B9 | 0.00032
B10 | 0.000138
B11 | 0.000366
B12 | 0.000369
B13 | 0.000161
B14 | 0.000116
B15 | 0.000743

Molecular target: T4, mouse 129 SIRP-α D1 domain
Assay: SPR, Langmuir fit
How it was run: as §1

Binder | koff [s⁻¹]
B1 | 0.000459
B2 | 0.000837
B16 | 0.00104
B3 | 0.000806
B4 | 0.000821
B17 | 0.00209
B5 | 0.000717
B6 | 0.000773
B7 | 0.000605
B8 | 0.00112
B9 | 0.000412
B10 | 0.000176
B11 | 0.000476
B12 | 0.00114
B13 | 0.000136
B14 | 0.000143
B15 | 0.00108

Molecular target: T5, NOD mouse SIRP-α D1 domain
Assay: SPR, Langmuir fit
How it was run: as §1

Binder | koff [s⁻¹]
B1 | 0.000386
B2 | 0.000504
B16 | 0.000736
B3 | 0.000576
B4 | 0.000638
B17 | 0.00157
B5 | 0.000573
B6 | 0.000563
B7 | 0.000417
B8 | 0.000762
B10 | 0.00128
B13 | 0.0013
B14 | 0.00119
B15 | 0.000764

molecular target: T6, C57BL/6 mouse SIRP-α D1 domain; assay: SPR, Langmuir fit
How it was run: as §1

Binder | koff [s⁻¹]
B1 | 0.00478
B2 | 0.0039
B3 | 0.00466
B4 | 0.00422
B17 | 0.00389
B5 | 0.00514
B7 | 0.0032
B9 | 0.00137
B10 | 0.00235
B11 | 0.00244
B12 | 0.00186
B13 | 0.00184
B14 | 0.00197

molecular target: T10, human SIRPβ isoform 1 (human, UniProt O00241 30-148); assay: SPR, Langmuir fit
T10 construct: also called SIRPb; sirpb1
T10 sequence (O00241 30-148 limits assumed): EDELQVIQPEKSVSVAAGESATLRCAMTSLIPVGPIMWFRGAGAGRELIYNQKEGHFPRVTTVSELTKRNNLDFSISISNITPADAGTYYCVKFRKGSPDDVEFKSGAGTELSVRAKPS
How it was run: as §1

Binder | koff [s⁻¹]
B1 | 0.0036
B2 | 0.00278
B3 | 0.00375
B5 | 0.00385
B6 | 0.00256
B7 | 0.00299
B8 | 0.00473
B9 | 0.000266
B10 | 0.000113
B11 | 0.000237
B12 | 0.000279
B13 | 8.97e-05
B14 | 6.48e-05
B15 | 0.000129
